Test results taken from patent US6824971 (SLOAN KETTERING INSTITUTE FOR CANCER RESEARCH, dated 2004).

B2: Smad4/DPC4 C-terminal domain, amino acids 294-552 (other)
chain: MPPHPGHYWPVHNELAFQPPISNHPAPEYWCSIAYFEMDVQVGETFKVPSSCPIVTVDGYVDPSGGDRFCLGQLSNVHRTEAIERARLHIGKGVQLECKGEGDVWVRCLSDHAVFVQSYYLDREAGRAPGDAVHKIYPSAYIKVFDLRQCHRQMQQQAATAQAAAAAQAAAVAGNIPGPGSVGGIAPAISLSAAAGIGVDDLRRLCILRMSFVKGWGPDYPRQSIKETPCWIEIHLHRALQLLDEVLHTMPIADPQPLD
notes: Construct for mammalian cells (pCMV5), Flag- or HA-tagged; also called Smad4(C); Smad4 C domain

Assays:
[1] = target: T1, Recombinant Smad4/DPC4 C-terminal domain, residues 319-552 (human); test: crystal structure, trimer (three interfaces in total); details: remark: other sources report otherwise
T1 chain: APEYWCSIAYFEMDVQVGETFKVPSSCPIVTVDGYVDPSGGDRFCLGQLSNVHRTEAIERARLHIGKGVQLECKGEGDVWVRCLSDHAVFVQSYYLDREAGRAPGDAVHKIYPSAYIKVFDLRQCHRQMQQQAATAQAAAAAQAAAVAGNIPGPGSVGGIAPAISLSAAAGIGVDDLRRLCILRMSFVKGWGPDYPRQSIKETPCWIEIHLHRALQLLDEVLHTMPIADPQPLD

[2] = target: the molecule itself; test: co-IP of differentially tagged constructs, COS cells
Description: (§1) The full-length Smad4/DPC4 and Smad2, Smad4/DPC4-C-terminal domain encoding amino acids 294–552 (SEQ ID NO.:1) and the Smad2-C-terminal domain encoding amino acids 248–467 (SEQ ID NO.:3) were subcloned into the mammalian expression vector pCMV5. All Smad4/DPC4 point mutations were generated by a polymerase chain reaction (PCR)-based method and were confirmed by DNA sequencing. Mammalian COS-1 cells were transiently transfected with the indicated FLAG- and HA-tagged constructs by the DEAE-dextran method. Two days after transfection, cells were incubated with 200 pM TGF-β1 for one hour. Cells were lysed and subjected to immunoprecipitation followed by immunoblot as described. The wash buffers contained 150 mM NaCl for all immunoprecipitation experiments except for the homo-oligomerization assays of the full-length wild-type Smad4/DPC4 and point mutants, where 250 mM NaCl was employed to better differentiate the WT and mutant activities.
(§2) To assay for homo-oligomerization, mammalian COS-1 cells were transiently transfected with Flag-tagged wild-type Smad4/DPC4-C-terminal domain (WT) and HA-tagged WT or mutant constructs. For hetero-oligomerization, cells were transfected with Flag-tagged Smad2 C-terminal domain and HA-tagged Smad4/DPC4 C-terminal domain WT or mutant constructs together with constitutively active TGF-β type I receptor construct. […]

[3] = target: B2; test: co-IP, Flag-WT with HA-mutant, COS-1 cells
Description: as §1, §2

[4] = target: B2; test: co-IP, Flag-WT C-terminal domain with HA-mutant, COS-1 cells
Description: as §1, §2

[5] = target: the molecule itself; test: gel filtration of recombinant full-length protein
Procedure: The full-length Smad4/DPC4 proteins, both wild-type and point mutants, were overexpressed at room temperature in E.coli using a pET vector (Novagen). Smad4/DPC4 protein in the soluble fraction of the E. coli lysate was partially purified by ion exchange chromatography (Q-Sepharose) and was applied to a gel filtration column (Superdex200) in 50 mM Tris, 200 mM NaCl, 5 mM DTT, pH 8.0. Aliquots from the fractions corresponding to molecular weight standards between 440 kDa and 25 kDa were taken for immunoblots with a rabbit polyclonal antibody raised against the Smad4/DPC4-C-terminal domain. The results were visualized with the ECL Western analysis and detection system (Amersham). In addition, the WT full-length Smad4/DPC4 was also cloned as a GST-fusion protein and purified to near homogeneity over a glutathione column. The fusion protein was then cleaved with Thrombin and the. Smad4/DPC4 protein was futher purified by anion-exchange chromatography (Source 15Q column).
The fractions were visualized with Coomassie staining. […] Gel filtration fractions of partially purified wild-type and mutant Smad4/DPC4 proteins were analyzed by immunoblots with anti-Smad4/DPC4 antibody.

B1: Recombinant Smad4/DPC4 C-terminal domain, residues 319-552, O70437 319-552 (protein)
chain: APEYWCSIAYFEMDVQVGETFKVPSSCPIVTVDGYVDPSGGDRFCLGQLSNVHRTEAIERARLHIGKGVQLECKGEGDVWVRCLSDHAVFVQSYYLDREAGRAPGDAVHKIYPSAYIKVFDLRQCHRQMQQQAATAQAAAAAQAAAVAGNIPGPGSVGGIAPAISLSAAAGIGVDDLRRLCILRMSFVKGWGPDYPRQSIKETPCWIEIHLHRALQLLDEVLHTMPIADPQPLD
Work on B1 yielded a buried surface area [1] of 4800 Å^2.

B2: binds [2].

B3: Smad4/DPC4 C-terminal domain Arg361Cys (other)
chain: MPPHPGHYWPVHNELAFQPPISNHPAPEYWCSIAYFEMDVQVGETFKVPSSCPIVTVDGYVDPSGGDCFCLGQLSNVHRTEAIERARLHIGKGVQLECKGEGDVWVRCLSDHAVFVQSYYLDREAGRAPGDAVHKIYPSAYIKVFDLRQCHRQMQQQAATAQAAAAAQAAAVAGNIPGPGSVGGIAPAISLSAAAGIGVDDLRRLCILRMSFVKGWGPDYPRQSIKETPCWIEIHLHRALQLLDEVLHTMPIADPQPLD
notes: HA-tagged; tumor-derived trimer interface mutation; also called R361C
B3: no binding [3].

B4: Smad4/DPC4 C-terminal domain Gly508Ser (other)
chain: MPPHPGHYWPVHNELAFQPPISNHPAPEYWCSIAYFEMDVQVGETFKVPSSCPIVTVDGYVDPSGGDRFCLGQLSNVHRTEAIERARLHIGKGVQLECKGEGDVWVRCLSDHAVFVQSYYLDREAGRAPGDAVHKIYPSAYIKVFDLRQCHRQMQQQAATAQAAAAAQAAAVAGNIPGPGSVGGIAPAISLSAAAGIGVDDLRRLCILRMSFVKSWGPDYPRQSIKETPCWIEIHLHRALQLLDEVLHTMPIADPQPLD
notes: HA-tagged; also called G508S; developmental L3 loop mutation
B4: binds [4].

B5: Smad4/DPC4 C-terminal domain Val370Asp (other)
chain: MPPHPGHYWPVHNELAFQPPISNHPAPEYWCSIAYFEMDVQVGETFKVPSSCPIVTVDGYVDPSGGDRFCLGQLSNDHRTEAIERARLHIGKGVQLECKGEGDVWVRCLSDHAVFVQSYYLDREAGRAPGDAVHKIYPSAYIKVFDLRQCHRQMQQQAATAQAAAAAQAAAVAGNIPGPGSVGGIAPAISLSAAAGIGVDDLRRLCILRMSFVKGWGPDYPRQSIKETPCWIEIHLHRALQLLDEVLHTMPIADPQPLD
notes: HA-tagged; tumor-derived trimer interface mutation; also called V370D
B5: no binding [3].

B6: Smad4/DPC4 full-length Gly508Ser (other)
chain: MDNMSITNTPTSNDACLSIVHSLMCHRQGGESETFAKRAIESLVKKLKEKKDELDSLITAITTNGAHPSKCVTIQRTLDGRLQVAGRKGFPHVIYARLWRWPDLHKNELKHVKYCQYAFDLKCDSVCVNPYHYERVVSPGIDLSGLTLQSNAPSSMMVKDEYVHDFEGQPSLSTEGHSIQTIQHPPSNRASTETYSTPALLAPSESNATSTANFPNIPVASTSQPASILGGSHSEGLLQIASGPQPGQQQNGFTGQPATYHHNSTTTWTGSRTAPYTPNLPHHQNGHLQHHPPMPPHPGHYWPVHNELAFQPPISNHPAPEYWCSIAYFEMDVQVGETFKVPSSCPIVTVDGYVDPSGGDRFCLGQLSNVHRTEAIERARLHIGKGVQLECKGEGDVWVRCLSDHAVFVQSYYLDREAGRAPGDAVHKIYPSAYIKVFDLRQCHRQMQQQAATAQAAAAAQAAAVAGNIPGPGSVGGIAPAISLSAAAGIGVDDLRRLCILRMSFVKSWGPDYPRQSIKETPCWIEIHLHRALQLLDEVLHTMPIADPQPLD
notes: Full-length point mutant; also called G508S
B6: binds [5].
